Measurements from patent US20250355001A1, “METHOD FOR DETECTING A TAU PROTEIN FRAGMENT IN A SAMPLE” (GTINVENT LIMITED, priority 2022, published 2025).

How the values were obtained:
htau40 = biological target: T1, htau40 (Homo sapiens, UniProt P10636); experiment: Biacore X100 SPR kinetics of anti-tau mAbs on immobilised htau40; assay type: binding
T1 construct: Full length tau (hT40)
Procedure: For anti-tau mAb SPR measurements, htau40 was conjugated to the surface of a CM5 sensor chip using amine coupling as explained previously. Briefly, 2 μg/mL htau40 in 10 mM Sodium acetate buffer (pH 4.0) was passed over the activated chip surface (EDC/NHS) in flow cell 2 for a period for 45 s followed by blocking with 1 M ethanolamine-HCl PH 8.5. Flow cell 1 was set up as reference control and blocked simultaneously. Final immobilisation level of htau40 (Rmax) was approximately 250 RU. Following a minimum of three start-up cycles, increasing concentrations (0.78 nM-25 nM) of the mAb in HBS-EP+ buffer was added at a rate of […] to the chip. The mAb was added for a 120 s association period and 600 s dissociation period followed by a regeneration cycle of 30 s injection of glycine buffer pH 1.5 in between each cycle. Binding responses were analysed in Biacore X100 evaluation software and data fitted to a 1:1 binding model to obtain kinetic and affinity characterisation.
For anti-tau mAb SPR measurements (Biacore X100™) and epitope mapping, the same methodologies described above (see Example 16) were followed. Kinetic rates and equilibrium binding constants of additional anti-tau mAbs and the regions recognised on hT40 are given in the Table 25 below

[1] = system: hT40, dGA, dGAE and truncated tau fragments; experiment: Binding ELISA / epitope mapping of anti-tau scAbs with truncated tau proteins and 13mer peptides; set-up: species or system human; details: for hT40 binding region: second Table 25, mAb format; for Short epitope on hT40: Table 18, '3a' & '3b' series scAbs; for Tau proteins/fragments with positive scAb reactivity: binding ELISA; for Shortest region bound on hT40: incl. 13mer peptides
Procedure: A series of binding ELISA was performed using various truncated versions of the tau protein and 13mer peptide libraries spanning the entire hT40 molecule for mapping the epitopes of anti-tau scAbs (Full list of protein antigens used is given in Table 14). In general, ELISA plates were coated with 1 μg/ml hT40 or dGA or dGAE or other truncated versions of the protein and in the case of biotinylated peptides, plates were coated with 5 μg/ml Streptavidin followed by 1 μg/ml biotinylated peptide. The plates were blocked with 2% MPBS and scAb samples added at desired starting concentrations and double diluted across the plate. Binding was detected using anti-Human C Kappa HRP conjugated secondary antibody and the resulting immunoreaction was developed and absorbance values measured as described above.
Selected E specific scAbs and their specific binding to dGAE is shown below (FIG. 8A-E).
Similarly, dGA binding ‘NS’, ‘S’ and ‘M’ group scAbs were subjected to further antigen binding ELISA using shorter tau proteins and biotinylated 13mer peptides as shown below (FIG. 10A-F) and (FIG. 11A-R).

[2] = biological target: T2, hT40 (T441, SEQ ID NO: 1) (Homo sapiens, UniProt P10636); experiment: Biacore X100 SPR kinetics of scAbs for hT40; assay type: binding
T2 construct: Full length tau (hT40)
Procedure: Surface plasmon resonance (SPR) is widely regarded as the gold standard for real time measurement of protein-protein interactions such as antibody binding. All SPR experiments were carried out using a Biacore X100 machine and HBS EP+ running buffer (GE Healthcare). A ‘capture’ method was followed for affinity measurements, where an anti-human constant kappa chain (HuCk) antibody was conjugated to the surface of a CM5 sensor chip using an amine coupling kit and scAb molecules were immobilised via their HuCk domain. Amine coupling is a very common approach for immobilising the ligand to the chip surface. […] The capture antibody was diluted 1/100 in 10 mM Sodium acetate buffer pH 5.0 and passed over the activated chip surface for a period of at least 420 s. Final ligand immobilisation levels over 12,000 RU were deemed to be satisfactory.
Following immobilisation, the level of each scAb to be captured was identified using the standard SPR equation with a theoretical RMax of 100 RU. Analyte MW refers to the molecular weight of hT40 or dGA/dGAE molecules, while ligand MW refers to the molecular weight of the scAbs tested. RL is the desired capture level and S refers to the stoichiometric ratio:
The scAb to be tested was added only to flow cell 2 so that flow cell 1 could act as a control to subtract any interaction with the analyte and the chip surface. Both single and multi-cycle runs were utilised using wizards developed in the Biacore X100 control software which are both accepted methods of kinetic analysis (Karlsson, R., et al. Analyzing a kinetic titration series using affinity biosensors (2006) Analytical Biochemistry 349:136-47). The multi-cycle protocol was as follows-Three start-up cycles composed of an initial capture, to the desired level, of the scAb to be tested was performed followed by a 30 s injection of glycine buffer pH 2.0 after each cycle to regenerate the chip surface. […] Following three start-up cycles increasing concentrations (0.15625 nM-100 nM) of the target to be tested were added to the chip surface after the desired scAb capture. The target was added for a 120 s association period and 420 s dissociation period followed by another regeneration, 30 s injection of glycine buffer pH 2.0 in between each cycle.
The single cycle kinetics protocol was similar and utilised the same level of scAb capture. Three start-up cycles were used followed by 5 increasing concentrations of the analyte (6.25 nM-100 nM) for an association period of 120 s followed by a dissociation period of 420 s for each concentration. In single cycle kinetics the regeneration step was performed only after the final analyte concentration was added. Binding responses were analysed in Biacore X100 evaluation software and data fitted to a 1:1 binding model to obtain kinetic and affinity characterisation.

[3] = second Table 25, newly converted mAbs, hT40
[4] = residue numbers of SEQ ID NO: 1 (hT40), CDR Tables 1-11
[5] = Table 25, '3a' and '3b' scAbs, hT40
[6] = Table 23, scAb captured, T441 (hT40) analyte, 1:1 model
[7] = Table 27, mAb format, immobilised htau40
[8] = Table 26 summary, top scAbs, residues of hT40

T2 sequence (P10636 1-441 isoform P10636-8): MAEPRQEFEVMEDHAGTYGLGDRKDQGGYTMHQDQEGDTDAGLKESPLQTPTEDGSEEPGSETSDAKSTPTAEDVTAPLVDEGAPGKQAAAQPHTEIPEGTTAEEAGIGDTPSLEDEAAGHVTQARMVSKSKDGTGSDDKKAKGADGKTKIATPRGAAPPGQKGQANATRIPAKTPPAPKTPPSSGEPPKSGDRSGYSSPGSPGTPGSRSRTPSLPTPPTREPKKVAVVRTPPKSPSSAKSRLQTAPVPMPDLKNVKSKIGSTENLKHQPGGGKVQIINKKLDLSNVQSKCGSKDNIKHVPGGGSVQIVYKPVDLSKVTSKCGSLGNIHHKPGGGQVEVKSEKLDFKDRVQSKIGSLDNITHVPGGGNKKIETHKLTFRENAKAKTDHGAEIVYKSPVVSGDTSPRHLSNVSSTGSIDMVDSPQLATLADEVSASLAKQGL
T1 sequence (P10636 1-441 isoform P10636-8): as above

| Molecule | ka (htau40; [3]) | kd (htau40; [3]) | Epitope [1, 4] | hT40 binding region [1] | ka [2, 5] | kd [2, 5] | Short epitope on hT40 [1] | also measured |
| --- | --- | --- | --- | --- | --- | --- | --- | --- |
| 3bD11: anti-tau clone, Table 10; SEQ ID NO: 637 (protein) scFv: RVRLQGSGPSLVKPSQTLSLTCTVSGFSFDSYYVGWVRQAPGKALEWLGNIYSTGRAFYNPALKSRLSITRDTSKSQVSLSVSSVTIEDTALYYCVRGSYYHGGGNGMVDFFDYWSPGLLVTVSSEGKSSGASGESKVDDQVVRTQPSSVSGSLGQRVSITCSGSSSNVGYGNYVGWFQQVPGSAPKLLIYAATSRASGVPDRFSGSRSGNTATLTIDSLQAEDEADYYCSSYQRGNTGVFGSGTRLTVLG | 2.671e+06 M⁻¹ s⁻¹ | 0.003979 s⁻¹ | 37-49 | 37-49 | – | – | – | – |
| 3aB7: anti-tau clone, Table 7; SEQ ID NO: 420 (protein, 3aB7 amino acid sequence) QVQLQESGPSLVKPSQTLSLTCTVSGFSLTSNGVGWVRQAPGKVPEWVGDKSSAGKTYGNPALKSRLSITRDTSKSQVSLSLSSVTTEDTAVYYCVRCRDGGVTYGYDVDYWGPGLLVTVSSEGKSSGASGESKVDDQAVLTQPSSVSKSLGQSVSITCSGSSSNVGYGDVVSWFQQFPGSAPKLLIFGTTTRASGVPDRFSGSRSGNAATLTINSLQAEDEADYYCASFDSDSGGIAGSGTRLTVLG | – | – | 49-111 | – | 207200 M⁻¹ s⁻¹ | 0.01435 s⁻¹ | 49-111 | – |
| CC7: human-specific anti-tau clone, Table 10; SEQ ID NO: 365 (protein, CC7 amino acid sequence) scFv: QVQLQESGPSLVKPSQTLSLTCTVSGFSLTSNAVIWVRQAPGKAPEWVALIDVDGDAAYDPALKSRLSITRDTSKSQVSLSLRSVTTEDTAVYYCARDYGSWGYVSDIDYWGPGLLVTVSSEGKSSGASGESKVDDRVVRTQPSSVSGSLGQRVSITCSGSYITGSSVGWFQQVPGSGLKTVIYDNNDRPSGVPDRFSGSKSGDTATLTISSLQAEDEADYYCASYDTSNIGLFGSGTRLTVLG | – | – | 145-157 | – | – | – | – | ka [2, 6]: 295700 M⁻¹ s⁻¹; kd [2, 6]: 0.0003659 s⁻¹; ka (htau40; [7]): 4.576e+06 M⁻¹ s⁻¹; kd (htau40; [7]): 0.03164 s⁻¹; Tau proteins/fragments with positive scAb reactivity ([1]; Table 17, 'C' group scAbs): hT40, 1-319; Shortest region bound on hT40 ([1]; Table 17, 'C' group scAbs): 145-157; Epitope [1, 8]: 145-157; Detection scAb (Epitope) ([1]; Table 28 (LoD table), residues of hT40): CC7 (145-157); binding region on hT40 ([1]; amino acid residues of hT40): 145-157 |
| 3aA6: anti-tau clone, Table 8; SEQ ID NO: 418 (protein, 3aA6 amino acid sequence) QVRLQESGSSLVKPSQTLSLVCTVSGFPLTSNAVGWVRQAPGKAPEWLGLIDIDGDTAYNPALESRLSITRDTSKSQVSLSLSSVAIEDTAVYYCARHYDKWGYADSIDYWGPGLLVTVSSEGKSSGASGESKVDDQALLTQPSSVFGSLGQRVSITCSGSSSNVGYGDYVGWYQQVPGSAPKLLIYDATTRASGVPDRFSGSRSGNTATLTISSLQAEDEADYYCASYQNERSGVFGSGTRLTVLG | – | – | 147-157 | – | 19000 M⁻¹ s⁻¹ | 0.0188 s⁻¹ | 147-157 | – |
| MD9: anti-tau clone, Table 10; SEQ ID NO: 373 (protein, MD9 amino acid sequence) scFv: QVRLQESGPSLVKSSQTLSLTCTVSGFSLTRESIAWVRQAPGKVPEWLGGVGIDGTSYYSPALKSRLSITRDTSKSQASLSLSSVATEDTAMYYCARNYIDFEYWGPGLLVTVSSEGKSSGASGESKVDDQAVLTQLSSVSGSLGQRISITCSGSSSNVGIYDVSWFQQLPGSGLRTVIYGTNNRPSGVPDRFSGSRSGNTATLTISSLQSEDEAIYYCAAGDSSTIAVFGSGTRLTVLG | 66200 M⁻¹ s⁻¹ | 0.001462 s⁻¹ | 373-385 | 373-385 | – | – | – | Tau proteins/fragments with positive scAb reactivity ([1]; Table 16, NS, S and M clones): hT40, 297-390 (dGA), 297-391 (dGAE), 369-390, 369-391; Shortest region bound on hT40 ([1]; Table 16, NS, S and M clones): 373-385; Epitope [1, 8]: 373-385 |
| 3aG3: N-terminal anti-tau clone, Table 6; SEQ ID NO: 424 (protein, 3aG3 amino acid sequence) QVQLQESGPSLVKPSQTLSLTCTVSGFSLSSNGVGWVRQAPGKVPEWVGDISSSGKAYANPALKSRLSITRDTAKTQVFLSLSSVTTEDTAVYYCVRCRDGGVSYGYDIDYWGPGLLVTVSSEGKSSGASGESKVDDQAVLTQPPSVSGSPGQRVSITCSGSSSNIGGGNYLSWFQQVPGSAPKLLIYGATSRASGVPDRFSGSRSGNTATLTISSLQAEDEADYYCASFDTSSGGIFGAGTRLTVLG | 1.532e+07 M⁻¹ s⁻¹ | 0.004751 s⁻¹ | 1-49 | 1-15 | 62940 M⁻¹ s⁻¹ | 0.0003869 s⁻¹ | 1-49 | – |
| 3bF4: anti-tau clone, Table 7; SEQ ID NO: 421 (protein, 3bF4 amino acid sequence) QVQLQESGPSLVKPSQTLSLTCTVSGFSLSSNGVGWVRQAPGKVPEWLGDISSVGKKYANPALKSRLSFTRDTSKSQVSLSLSSVTTEDTAVYYCVKCRDGGVTYGYDIDYWGPGLLVTVSSEGKSSGASGESKVDDQAVLTQPSSVSKSTGQTVSITCSGSSSNVGLRNYVTWFQQVPGSAPKLLIYGATSRASGIPDRFSGSRSGNTATLIISSLQAEDEADYYCASADTNDGGVFGSGTRLTVLG | – | – | 49-111 | – | 109300 M⁻¹ s⁻¹ | 0.01532 s⁻¹ | 49-111 | – |
